Legend:
[1] = target: T1, human VEGF-A residues 27-191 of Accession #AAV38412 (human, UniProt P15692 27-191); assay: BIAcore SPR
T1 construct: range 27-191

[2] = target: T1, human VEGF-A residues 27-191 of …; assay: BIAcore SPR, KD WT/KD mutant
[3] = target: T1, human VEGF-A residues 27-191 of …; assay: BIAcore SPR; * detection limit
Procedure: (§1) The binding kinetics and affinity of the antibodies for VEGF (human VEGF-A residues 27-191 of Accession #AAV38412) was determined by using a BIAcore T200 surface plasmon resonance system (BIAcore, GE Healthcare, Piscataway, N.J.). Coupling running buffer was HBS-EP+ running buffer (10 mM HEPES, 150 mM sodium chloride, 3 mM EDTA 0.05% P-20, pH 7.4); assay running buffer was HBS-EP+ with 300 mM sodium chloride and 0.1 mg/mL BSA (Sigma A7906). Polyclonal goat anti-human Fc (Thermo Scientific prod#31125) was first immobilized to the biosensor surface in 10 mM sodium acetate, pH 4.5 using standard BIAcore amine coupling reagents (N-ethyl-N′-dimethylamino-propylcarbodiimide, EDC; N-hydroxysuccinimide, NHS; and ethanolamine HCl, pH 8.5). For binding kinetics assay a series of cycles were performed, each cycle consisted of 1) mAb capture, 2) Ag or buffer injection, 3) dissociation phase and 4) regeneration. Briefly, anti-VEGF antibodies were captured on parallel surfaces at a low flow rate of 10 μL/min. Capture levels were kept low to minimize avidity due to the dimeric nature of VEGF. No capture of the antibody was made on the reference surface to serve for primary referencing and as a negative control. […]

[4] = target: T1, human VEGF-A residues 27-191 of …; assay: BIAcore SPR; kd of this row is at the detection limit
Procedure: as §1

[5] = target: T2, unlabeled human VEGF (ELISA coat) (human, UniProt P15692-4 27-191, limits assumed); assay: ELISA on coated human VEGF, 1 hr incubation, against bevacizumab (WT)
T2 sequence (P15692 other isoform, or with tags, fused parts or gaps limits assumed): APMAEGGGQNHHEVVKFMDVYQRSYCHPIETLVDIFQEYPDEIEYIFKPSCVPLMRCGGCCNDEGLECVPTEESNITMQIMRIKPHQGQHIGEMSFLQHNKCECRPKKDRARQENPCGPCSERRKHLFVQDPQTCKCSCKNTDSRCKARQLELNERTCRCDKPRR
Procedure: (§2) Corresponding variants in DVD-Ig format were analyzed for binding kinetics by BIAcore only.
(§3) To detect identified variants binding to antigen, ELISA plates (Nunc-Immuno MaxiSorp plates, Nalge Nunc, Rochester, N.Y.) were coated overnight at 4° C. with unlabeled human VEGF at 1 μg/mL in 0.2 M sodium carbonate-bicarbonate buffer (pH 9.4, Pierce, Rockford, Ill.). The plates were then blocked with SuperBlock Blocking Buffer (Pierce, Rockford, Ill.) for 30 min and washed with Washing Buffer (PBS containing 0.1% Tween 20). All the washing steps were performed for three times. […] The plates were washed and 100 μL of goat anti-human kappa HRP-conjugated antibody (Southern Biotech, Birmingham, Ala.) diluted at 1:1000 in ELISA buffer was added to each well. After 30 minutes of incubation, plates were washed and bound antibodies were detected by addition of TMB 1 Component HRP Microwell substrate (BioFx #TMBW-1000-01). The reaction was terminated by addition of 100 μL/well of 650 nM Stop Reagent for TMB Microwell substrate and the absorbance was measured at 650 nm using a VERSAmax microplate reader (Molecular Devices, Sunnyvale, Calif.). Data were fitted using nonlinear regression with the software […]

[6] = target: T2, unlabeled human VEGF (ELISA coat); assay: ELISA on coated human VEGF, overnight assay, against bevacizumab (WT)
Procedure: as §2, §3

T1 sequence (P15692 other isoform, or with tags, fused parts or gaps limits assumed): as above

kon [1]: 41200 M⁻¹ s⁻¹
affinity improvement [2]: 1.8 fold
koff [3]: ≤ 1e-05 s⁻¹
Kd [4]: ≤ 0.243 nM
fold over WT (EC50 wild type/EC50 mutant), 1-hour assay [5]: 2.6 fold
fold over WT (EC50 wild type/EC50 mutant), overnight assay [6]: 9.3 fold
B1: bevacizumab variant H97Y (IgG format) (antibody, name in Kabat numbering, V domains shown)
VH: EVQLVESGGGLVQPGGSLRLSCAASGYTFTNYGMNWVRQAPGKGLEWVGWINTYTGEPTYAADFKRRFTFSLDTSKSTAYLQMNSLRAEDTAVYYCAKYPYYYGSSHWYFDVWGQGTLVTVSS
VL: DIQMTQSPSSLSASVGDRVTITCSASQDISNYLNWYQQKPGKAPKVLIYFTSSLHSGVPSRFSGSGSGTDFTLTISSLQPEDFATYYCQQYSTVPWTFGQGTKVEIKR
notes: IgG format; also called H97Y substitution

From patent US20140154255A1 (AbbVie / Abbott, published 2014)
